Measurements reported in patent US20180066029A1.

Experiments:
Assay in all cases: CIDOP with next-generation sequencing, recovery of peaks
[1] = biological target: nucleosomes having only H3K36me3
[2] = biological target: nucleosomes having only H3K9me3
[3] = biological target: nucleosomes having both H3K9me3 and H3K36me3 (H3K36me2/3)
[4] = biological target: nucleosomes having neither H3K9me3 nor H3K36me3

Substance: artificial protein PM (PWWP domain of Dnmt3a, naturally occurring linker of 21 amino acids, chromodomain of MPP8, N-terminal GST tag) (designed binder)
- percent of genome regions of this state isolated by PM [1]: 6.66%
- percent of genome regions of this state isolated by PM [2]: 6.2%
- percent of genome regions of this state detected by PM [3]: 80.9%
- percent of genome regions of this state isolated by PM [4]: 0.04%
